In the DeepSol protein solubility set:

Assay: soluble on expression in E. coli; label from the status in PepcDB or PDB records

Row | Sequence | soluble on expression in E. coli
1 | MPKATFYTHVAQVPIFTCRLIARAIRDGGRILVWSDSFGQLQELDKMLWQYEAESFIPHEIWETEEAMPSEPSVLLACGGNLPRIPEGMTVLNLSDGFWNTAPVLPARVLEIVGNSLEELADARERFTAYRRSGFAIEHHGMEGKA | not soluble
2 | MTPLPVTVIGGYLGAGKTTLVNHLLRHAAGRRLAVLVNEFGDLPIDADLIEAEEDGMISIAGGCICCSFGSDLIGALNDLAAMEPRPDHILVESSGVAIPGAIVSTMLLADGIRSDGIVVVVDGETVRQRAQDDYVGDTITRQLSDAEIVVVNKTDLLAHAVQTELMEWLAEAAPGAIAIPAERGRVAPGALLGVLPAPGTGQPAHHSDRLFDSLVLAPEGGQPIERLARDLATGPHGVIRAKGYLRDIEGALWLIQTVGRRWEVTPAQGPHQTGLVCIGFRDRLDRSGLAALAGATV | not soluble
3 | MKDQNGVASTDDSVLPSWSNPDVGQFIVSTYNEYEYKRIPFRELEFGCLLCRMRTFNHEGMKKHLRDHVVHKKSSCEHEKPGKTGIHHQVDKAGNGVMPENGQLVQCYIEIKLADCYTSWSNYESQNPIIFKIGFGEVIPGLDIGIPKMKVGEIATFHVSGKYGYGRAGFRGLIPRNASLTCKVRLFNCSWDSYAKIGVDRQILVQGDNVTKSKNGQTVTCHYVLILVDGTKIDSSRDRETPFKFKIGKGEVIKGWDQGVAQMSVKEKSKLTIAPAFGFEKGKLPAGIPA | not soluble
4 | MEKVVCIGCGVTIQTEDKTGLGYAPPASLTKENVICQRCFRLKNYNEIQDVSLTDDDFLNILHGIGETDSLVVKIVDIFDFNGSWINGLQRLVGGNPILLVGNKADILPKSLKRERLIQWMKREAKELGLKPVDVFLVSAGRGQGIREVIDAIEHYRNGKDVYVVGCTNVGKSTFINRIIKEVSGEEDIITTSQFPGTTLDAIEIPLDDGSSLYDTPGIINNHQMAHYVNKKDLKILSPKKELKPRTFQLNDQQTLYFGGLARFDYVSGERSPFICYMPNELMIHRTKLENADALYEKHAGELLTPPGKDEMDEFPELVAHTFTIKDKKTDIVFSGLGWVTVHDADKKVTAYAPKGVHVFVRRSLILEHHHHHH | soluble
5 | MAHHHHHHMHHGATLHESLPCPLVSPIVSIDQCPFQPHERSETRPPHGNASLTFYTARSRCRVNFTPGPNVTYSAENKYSWNPYYRLETENKSQRLKAAQEECNSASVSGPCPIALTPRQGQCMARCSNTSSSTAQSPMHTFGCETPAIVSRCELSPQFSSVKSESGRALLTASHSIEENSITESTCVPQFDNMMHGLPMYASIHPVGEVWPLNEMNNEENVVFDAIKPTRNEQLQQQLYPTPLLVSQNQPTVSPYPYVMESRTIQPTYVSYNKARVPLLRFSKMLPPPVRCEAMSILENENPQLPLLMMYNPVLRWYERIKALLNEDYSAWPGGSCAVNISNNKSVRLELEEPCPTLPNKAEQTRENMSQWLKECNEWWDRQFFEKSRNGDKRRNGTGRGKWRQYSIQYPYNNHNNNNKAHKVNRGMQFDGEVAFLRRGGLQ | not soluble
6 | MNSSILLEVFKNAFSSIAEEMGLVLQRTAFSPNIKERRDFSCAVFDKEGNLVAQAAHIPVHLGSMPLSVKEAIKAFKGEFEEGDMVVLNDPYMGGTHLPDITLVAPFFYKGELLFFLANRAHHADVGGATPGSMPLSTSIFQEGFIIPPLKLMKRGELNEDFMKVFLRNVRTPEEREGDFKAQIMANITGIKRLRELIEREGIEKVLFFSKELMNYSERIIRERIKALPEGEYEFEDYMEDDGYGRKDVKIHLKLKVEKEKLIFDFSKSDDQTRGGINAVRAITLSAVYYAVISLLGSDIPVNEGCFRPLEVITRKGSVVDAEFPAGVAGGNVETSQRIVDVVLGAFSKAIPEKVPAASQGTMNHVTIGGINPENGEPFTYYETIGGGMGASAKGDGESAVHSHMTNTLNTPIEALEHYYPILVTEYSIRKGSGGEGMHRGGDGIVREYEFLTDVEVTVLSERRRLAPYGLFGGKPGMPGINLIKTEEGEKEMPSKFSVYLKKGDRLRVETPGGGGYMKEE | not soluble
7 | KRVFGFVSAKGGDGGSCIAANFAFALSQEPDIHVLAVDISLPFGDLDMYLSGNTHSQDLADISNASDRLDKSLLDTMVQHISPSLDLIPSPATFEKIVNIEPERVSDLIHIAASFYDYIIVDFGASIDHVGVWVLEHLDELCIVTTPSLQSLRRAGQLLKLCKEFEKPISRIEIILNRADTNSRITSDEIEKVIGRPISKRIPQDEDAMQESLLSGQSVLKVAPKSQLSKTIVDWALHLNGVSRPNKRSIWERLKIK | soluble
8 | MAGRVHPRQLAFSLPHAESLSRDNFLEGPANAAGLALIDGWPEWPNRIMWLAGPEGSGKSHLAAIWAEEAGARSTTANALSAAGVPGALATGALVVEDLKAKDFDERALFHLMNLAREDGAYVLFTGRDVPAALDIELNDLRSRLRAVPVVMLLPPDDQLFRGLIVKFCADRQLTVDESVVSYLATRLERSSAAARQAVELLDSEALRLGRPVTRALAAELLRDALEHHHHHH | soluble
9 | MDKLKVAELFAGVGGFRLGLENTKEKIFDVTWANQWEPSKKIQHAFDCYNSRFITGEHVNKDIALISDEEIANTKADMVVGGFPCQDYSVARSLSGELGIQGKKGVLFWQIIRFIQNTYPKYLLLENVDRLLKSPSSQRGRDFGVMLSTLNELGYNVEWRVINAADYGNAQRRRRVFIFGYKQDLEHHHHHH | soluble
10 | MGSDKIHHHHHHSSSDLKDLLRERIAAKYTIDDLKDTGKKIRKTAPIESLAAVSKIDRDPVQFINSVEQNLTKSLLPMRHSRMGASQAAFFRGTAELMAYDLQQGEKSGINLLIDGDAHLQNFGFYASPERNLLFDLNDFDEAQINSFEFDIKRLLTSVYLLGDQQGFDADKLDELVQTDASIYRKTLRDLFKVGALDRFYQSTEVNHLVQSIPGAEDSALLSKFVKKATKRNNDSVIKKYTTTIDGNMRFKDDPPSSVRLDKATYQAIFDGFTQYRKSTRPDILVLLSEYRITDIIHHSVGIGSFGTNCYLVLLSGLGGSHLVLQVKEALPPRPELIPNTERITLQQEVSQGQRIIASQMILQKASDPFLGWFNVGDKSYYVRQFRDMKGSVDLEELTFPEFQYYTQITTYLLAMAHAQTPQAAVVTGYLDKSFDSAVQRWSKWYLNQVKADYSAFMRAVQTHMLA | not soluble
11 | MATDTSSPKHEPIIIAVEPYGGSVRDHSPLLPLVYWDDAAVTRGDGVFETILFRHGRACNLERHAQRFRESAVLLDLPEPRLDHWVHATSMAVEKWFQQSESDAKCVWTYTRGRASTGHPSAWLTITAVPDCVIEQREQGVRVMTTPRGYHIDTSNSVPWVVIGAKTLNYASNMAALRWAKKEGFDDVIFTEQDRILEGATSTVVTFRGNKIRSPFPGGDVLPGTTQAALFDYATNLGWNCKLKDMDEVYLTEKADSVWLISSVRGATRVRRINDTKLPRPDNESEIRELIEAALTAL | not soluble
12 | MDPIASVLEKVKSFTKSSQDLVSRHFGFHENPSRLNPIDILKRLQRETFSDLMKLRERQEKVERIISSQKLSKGGPFQETSTHVRGEVDVLGAILLMGNTDEESFNGLNKEGVRPGLLSRFVFETSLRETDRLVAELVAGYNGAGSHRDFLGGELSLAKVFYKADINDWFSAIAIPVGAHFRDIEASTVSSYQGMSLTEVSELGPPLLSQHNGSAIGLTFRKSNITASLAQSMSNVEVEQGLTAPNRCFRTFGQVTCHILRSLKLSLLGCHQVLTSSSNLHSVGAITVPVSFLRRHTATEPEPSAPPLEMSRNMNHVSSSSIALKLDSLMDESTKLGGWIEIQNSREKQVKWSVSITDNPEDEVGWGMSVGGVVDGSRNHDQFQVESYLKFNIGDRFRLSPCLVYHTNSDGRTIGLMLKSHWSL | soluble
13 | MLSKITQELLKMNNVLLMRPDDSEFMIPDDWSGLNAKGITYEQDNRVTESFLPFKSFYCSPVCTTVELISQNNCFAMGIRYLLEKKRDLRLNHFKAFSHKCETKPDVLIMTGCTVADTYSIFSRIVEENIMKTMTPIVIITGHHSEDLCSLASKLGGVKIISPTEKIAKIENAINDAFNSKPKKIRFLTDILSPQQIETMKMVAQGRSVNEISAAMNISIKTVYAHKVRAINKLGIKKKVYEALFYKALIQFN | not soluble
14 | MSLETILLNINISADKTSPKTLRKQLNKVLTSLDVNIQTSRKVELVTSEIVTNIVTHNNDNHTNITLKFGKCKNGYWLDIYDNGAEFDPLSGDIPELNDEFLLFESSRGLYLIRSQCDFIEYEYLNKIKNNRIHCVWYDENINAGPTILIIDDSEIELAIVSNLLSDQFSVLQASNGLDAISILDSHSIDIIISDLHMPTINGVDLYVYLQKHLDKIIPFIFLTSDTNEMTGLREDAYRIGADDVLTKPISQQMLVNAIERALKRNNEGHHHHHH | soluble
